# Results from patent US20170242041.
# Key:
# [1] = system: recombinant human GFAP with C-terminal tag (DDK)
# recombinant human GFAP with C-terminal tag (DDK), sequence (chain, as listed by the source): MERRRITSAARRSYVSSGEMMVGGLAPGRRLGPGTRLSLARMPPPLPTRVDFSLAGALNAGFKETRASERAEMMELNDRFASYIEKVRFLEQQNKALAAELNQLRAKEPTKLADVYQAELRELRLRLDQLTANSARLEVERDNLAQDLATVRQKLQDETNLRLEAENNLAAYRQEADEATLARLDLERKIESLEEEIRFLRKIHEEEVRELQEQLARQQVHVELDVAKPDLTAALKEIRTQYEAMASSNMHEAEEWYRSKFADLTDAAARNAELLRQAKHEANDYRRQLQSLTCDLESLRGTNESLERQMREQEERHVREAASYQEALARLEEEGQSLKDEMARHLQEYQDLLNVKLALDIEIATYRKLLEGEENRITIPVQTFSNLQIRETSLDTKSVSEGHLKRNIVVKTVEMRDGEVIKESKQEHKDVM
# rat Tau (intact protein), sequence (chain, as listed by the source): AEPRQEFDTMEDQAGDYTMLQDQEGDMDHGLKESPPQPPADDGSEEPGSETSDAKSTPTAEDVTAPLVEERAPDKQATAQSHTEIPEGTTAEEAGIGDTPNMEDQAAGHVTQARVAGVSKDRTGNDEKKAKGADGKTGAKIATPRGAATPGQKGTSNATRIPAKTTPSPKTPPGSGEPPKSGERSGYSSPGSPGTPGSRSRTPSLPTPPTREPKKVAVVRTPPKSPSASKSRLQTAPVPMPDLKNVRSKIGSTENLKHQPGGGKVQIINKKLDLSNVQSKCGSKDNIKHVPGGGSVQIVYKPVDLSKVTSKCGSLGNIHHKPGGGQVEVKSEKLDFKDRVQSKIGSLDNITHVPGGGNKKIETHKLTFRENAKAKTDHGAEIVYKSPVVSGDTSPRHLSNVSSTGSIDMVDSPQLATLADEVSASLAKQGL
# calpain-2, sequence (P17655 20-700): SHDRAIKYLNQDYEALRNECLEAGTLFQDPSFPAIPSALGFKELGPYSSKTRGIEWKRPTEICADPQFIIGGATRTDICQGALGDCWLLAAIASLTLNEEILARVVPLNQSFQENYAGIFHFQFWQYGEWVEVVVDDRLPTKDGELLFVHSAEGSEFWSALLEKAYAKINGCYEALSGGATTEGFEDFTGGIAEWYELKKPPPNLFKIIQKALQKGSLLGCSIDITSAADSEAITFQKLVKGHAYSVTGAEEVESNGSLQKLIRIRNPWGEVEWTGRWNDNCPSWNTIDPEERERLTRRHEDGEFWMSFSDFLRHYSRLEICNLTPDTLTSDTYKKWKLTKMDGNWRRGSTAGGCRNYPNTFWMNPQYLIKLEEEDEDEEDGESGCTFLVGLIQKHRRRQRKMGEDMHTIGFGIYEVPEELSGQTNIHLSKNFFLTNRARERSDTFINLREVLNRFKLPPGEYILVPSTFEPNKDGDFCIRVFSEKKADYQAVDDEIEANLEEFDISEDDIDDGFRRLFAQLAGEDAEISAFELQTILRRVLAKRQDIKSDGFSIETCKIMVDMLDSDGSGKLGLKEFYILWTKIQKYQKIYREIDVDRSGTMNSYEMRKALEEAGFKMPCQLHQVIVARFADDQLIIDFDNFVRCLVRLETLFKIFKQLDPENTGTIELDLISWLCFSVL
# calpain-1, sequence (P07384 2-714): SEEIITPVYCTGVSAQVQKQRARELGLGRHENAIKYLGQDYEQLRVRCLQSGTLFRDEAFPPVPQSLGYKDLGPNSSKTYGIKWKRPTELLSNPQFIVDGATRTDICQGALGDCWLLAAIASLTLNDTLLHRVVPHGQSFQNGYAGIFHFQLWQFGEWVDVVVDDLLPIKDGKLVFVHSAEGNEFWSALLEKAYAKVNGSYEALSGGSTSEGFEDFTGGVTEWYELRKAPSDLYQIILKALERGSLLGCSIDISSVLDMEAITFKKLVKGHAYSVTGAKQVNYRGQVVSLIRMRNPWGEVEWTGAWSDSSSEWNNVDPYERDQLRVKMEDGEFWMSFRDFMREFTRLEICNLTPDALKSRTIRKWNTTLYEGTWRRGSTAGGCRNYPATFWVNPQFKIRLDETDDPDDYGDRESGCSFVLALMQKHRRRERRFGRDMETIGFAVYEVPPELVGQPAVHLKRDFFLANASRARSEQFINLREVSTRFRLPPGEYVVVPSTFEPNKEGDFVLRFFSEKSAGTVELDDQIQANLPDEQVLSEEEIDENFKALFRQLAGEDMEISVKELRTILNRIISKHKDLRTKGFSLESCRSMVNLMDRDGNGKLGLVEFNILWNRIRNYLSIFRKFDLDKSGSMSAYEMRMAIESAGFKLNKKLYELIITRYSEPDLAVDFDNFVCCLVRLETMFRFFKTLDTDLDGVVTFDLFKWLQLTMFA
Substance,"proteolytic digestion, western blot of fragments (rat Tau (intact protein))",proteolytic cleavage sites (human Tau),"proteolytic digestion, western blot with anti-total tau antibody (human Tau)","proteolytic cleavage (Coomassie, anti-DDK and anti-GFAP western blot) [1]",proteolytic cleavage; N-terminal sequencing of fragments (rat Tau (intact protein)),proteolytic cleavage; N-terminal sequencing of excised GBDP bands [1]
calpain-1,"Both calpain-1 and -2 digest tau into several immunoreactive fragments (42 kDa, 35 kDa and 15 kDa)",,,,,
caspase-3,caspase-3 digestion only produces limited fragment doublet of 48 kDa/45/kDa,Caspase cleavage sites in human Tau are Asp25 (GDRKD*25QGGYTMHQD (SEQ ID NO: 17)) ... and Asp421 (SSTGSIDMVD*421SPQLATLA (SEQ ID NO: 18)),Treatment of human tau with calpain or caspase produce numerous breakdown products,illustrates successful cleavage by both calpain and caspase,Caspase-3 cleaves rat Tau at Asp412 (SSTGSIDMVD*412SPQLATLA (SEQ ID NO: 10)),
calpain-2,"Both calpain-1 and -2 digest tau into several immunoreactive fragments (42 kDa, 35 kDa and 15 kDa)",,Treatment of human tau with calpain or caspase produce numerous breakdown products,,,cleavage by calpain 2 at Asn59 (GALN*59AGFKETRASERAE) ... and Thr383 (TIPVQT*383FSNLQIRET) ... overall producing multiple GBDPs between 49 and 38 kDa in recombinant human GFAP
calpain (calpain 2 or calpain 1),,Human TBDPs are produced from Human Tau by calpain cleavage at Ser129 ... Val229 ... Gly157 ... Lys44 ... and Arg379,,,Calpain cleaves rat tau at Lys43 ... Ser120 ... Val220 ... and Arg370,
